Substitutions are numbered along the chain they refer to. Blank lines part the entries; values can stand above or below the binder they belong to.
Legend:
[1] = biological target: T1, CCL22 labeled with Alexa Fluor 647, O00626; assay: flow cytometry on cells; settings: chain shown with the change;; parent: est. 47; read off a plot
T1 chain: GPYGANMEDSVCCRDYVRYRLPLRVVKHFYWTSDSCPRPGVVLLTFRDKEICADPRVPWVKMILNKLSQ

[2] = biological target: CCL2 labeled with Alexa Fluor 647, P13500; assay: flow cytometry on cells; settings: read off a plot
[3] = chain shown with the change;, parent: est. 195

Sequence of CCL2 labeled with Alexa Fluor 647, P13500 (P13500 24-99): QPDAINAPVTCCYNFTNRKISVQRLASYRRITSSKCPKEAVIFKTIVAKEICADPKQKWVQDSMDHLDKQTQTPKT

B1: HA-ACKR2 (epitope-tagged human ACKR2, wild type), O00590 YYYDY to FFYDF (first, second and fourth tyrosines of the motif to F) (protein)
chain: MAATASPQPLATEDADSENSSFFFYDFLDEVAFMLCRKDAVVSFGKVFLPVFYSLIFVLGLSGNLLLLMVLLRYVPRRRMVEIYLLNLAISNLLFLVTLPFWGISVAWHWVFGSFLCKMVSTLYTINFYSGIFFISCMSLDKYLEIVHAQPYHRLRTRAKSLLLATIVWAVSLAVSIPDMVFVQTHENPKGVWNCHADFGGHGTIWKLFLRFQQNLLGFLLPLLAMIFFYSRIGCVLVRLRPAGQGRALKIAAALVVAFFVLWFPYNLTLFLHTLLDLQVFGNCEVSQHLDYALQVTESIAFLHCCFSPILYAFSSHRFRQYLKAFLAAVLGWHLAPGTAQASLSSCSESSILTAQEEMTGMNDLGERQSENYPNKEDVGNKSA
response [1]: 18 MFI

B2: HA-ACKR2 (epitope-tagged human ACKR2, wild type), O00590 YYYDY to FYYDY (first tyrosine of the motif to F) (protein)
chain: B1 chain with F24Y, F27Y
response [2, 3]: 180 MFI

B3: HA-ACKR2 (epitope-tagged human ACKR2, wild type), O00590 YYYDY to FFFDY (first, second and third tyrosines of the motif to F) (protein)
chain: B1 chain with Y25F, F27Y
response [1]: 24 MFI

B6: HA-ACKR2 (epitope-tagged human ACKR2, wild type), O00590 YYYDY to FYFDF (first, third and fourth tyrosines of the motif to F) (protein)
chain: B1 chain with F24Y, Y25F
response [1]: 19 MFI

B8: HA-ACKR2 (epitope-tagged human ACKR2, wild type), O00590 YYYDY to YYYDF (fourth tyrosine of the motif to F) (protein)
chain: B1 chain with F23Y, F24Y
response [2, 3]: 180 MFI

B9: HA-ACKR2 (epitope-tagged human ACKR2, wild type), O00590 YYYDY to YFFDF (second, third and fourth tyrosines of the motif to F) (protein)
chain: B1 chain with F23Y, Y25F
response [1]: 22 MFI

Now from value to binder:

response ([2]; chain shown with the change, 10 µg/ml Alexa-CCL2, parent: est. 28): 3 MFI
response ([2]; chain shown with the change, 20 µg/ml Alexa-CCL2, parent: est. 37): 3 MFI
response ([2]; chain shown with the change, 30 µg/ml Alexa-CCL2, parent: est. 54): 6 MFI
response [2, 3]: 26 MFI
response [1]: 7.5 MFI
B4: HA-ACKR2 (epitope-tagged human ACKR2, wild type), O00590 YYYDY to FFFDF (all four tyrosines of the motif to F) (protein)
chain: B1 chain with Y25F

response [1]: 71 MFI
B5: HA-ACKR2 (epitope-tagged human ACKR2, wild type), O00590 YYYDY to YFYDY (second tyrosine of the motif to F) (protein)
chain: B1 chain with F23Y, F27Y

response [2, 3]: 180 MFI
B7: HA-ACKR2 (epitope-tagged human ACKR2, wild type), O00590 YYYDY to YYFDY (third tyrosine of the motif to F) (protein)
chain: B1 chain with F23Y, F24Y, Y25F, F27Y

— article PMC4007430
